The target in test [1] is T1, human IL-23 (IL-23-His-Biotin) (human, UniProt Q9NPF7 20-189; P29460 23-328, biotin label, site not stated).
T1 construct: Akesobio lot 20161209; His-tagged and biotinylated
T1 sequence (looked up) 1: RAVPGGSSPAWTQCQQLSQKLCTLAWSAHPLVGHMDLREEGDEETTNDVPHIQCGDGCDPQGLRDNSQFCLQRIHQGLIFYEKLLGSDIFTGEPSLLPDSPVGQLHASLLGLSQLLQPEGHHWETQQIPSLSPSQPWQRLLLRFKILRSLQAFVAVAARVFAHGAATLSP
T1 sequence (looked up) 2: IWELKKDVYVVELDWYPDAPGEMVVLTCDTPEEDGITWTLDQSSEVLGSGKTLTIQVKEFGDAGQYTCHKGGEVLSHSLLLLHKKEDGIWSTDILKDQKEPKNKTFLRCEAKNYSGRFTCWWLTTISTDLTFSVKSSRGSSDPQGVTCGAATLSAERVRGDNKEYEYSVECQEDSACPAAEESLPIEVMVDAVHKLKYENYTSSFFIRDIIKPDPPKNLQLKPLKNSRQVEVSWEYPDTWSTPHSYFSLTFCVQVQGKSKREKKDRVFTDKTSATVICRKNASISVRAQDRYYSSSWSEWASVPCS
Kind of test: FACS competition, IL23-His-Biotin (4 µg/mL mixed 1:1) on 293T-IL-12Rβ1&IL-23R cells. As for the experimental part:
200 μL of 1% PBSA was added into each sample, and the mixture was centrifuged at 1200 rpm for 5 min to discard the supernatant. According to experiment design, correspondingly diluted antibody (highest concentration of 60 μg/mL, 3-fold dilution, 8 concentrations in total) and human IL23-His-Biotin (Akeso Biopharma, Inc., Lot. No.: 20161209) (4 μg/mL) were mixed at a ratio of 1:1, and a blank control was set. The mixture of antibody and IL23-His-Biotin was incubated on ice for 30 min and then added to the cell precipitate at 100 μL/sample. The resulting mixture was well mixed and incubated on ice for 60 min. 200 μL of 1% PBSA was added, and the mixture was centrifuged at 1200 rpm for 5 min to discard the supernatant, and then washed twice. FITC Steptavidin (Biolegend, Cat. No.: 405202) was diluted at a ratio of 1:500 and added to each tube at 100 μL. The mixture was well mixed and incubated on ice for 40 min in the absence of light. 200 μL of 1% PBSA was added, and the mixture was centrifuged at 1200 rpm for 5 min to discard the supernatant, and then washed twice. 1% PBSA was added at 200 μL/tube, and the cells were resuspended and transferred to a flow cytometry tube for testing.

In test [2] the target is T2, human p40-His (human, UniProt P29460 23-328).
T2 construct: Made by Akeso Biopharma; construct limits and tag not described; also called human IL-12/IL-23 p40 protein domain; human IL-12/IL-23 p40; not shown: His tag
T2 sequence (looked up): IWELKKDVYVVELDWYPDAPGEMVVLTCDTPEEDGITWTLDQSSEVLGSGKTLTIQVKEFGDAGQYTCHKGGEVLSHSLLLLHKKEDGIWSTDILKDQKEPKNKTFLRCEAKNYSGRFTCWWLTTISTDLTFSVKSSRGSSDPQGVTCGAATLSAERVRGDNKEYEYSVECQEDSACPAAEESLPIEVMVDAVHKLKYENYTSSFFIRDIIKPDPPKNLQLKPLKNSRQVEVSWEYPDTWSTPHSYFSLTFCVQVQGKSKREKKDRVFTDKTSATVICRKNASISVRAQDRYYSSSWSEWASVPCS
Put plainly: BLI (Fortebio), p40-His on HIS1K sensor, antibody 5-0.31 nM, 37 °C, 1:1 fit. As for the experimental part:
The sample dilution buffer for H5L9, H5L10, H5L11, H5L12, H5L14, H8L15, Ab123FR1 and ustekinumab was PBS (0.02% Tween-20, 0.1% BSA, pH 7.4). p40-His was immobilized on a HIS1K (manufacturer: Fortebio, Cat. No.: 18-5120) sensor at a concentration of 1 μg/mL for 40 s. The sensor was equilibrated in a buffer for 60 s, and the p40-His immobilized on the sensor bound to the antibody at a concentration of 5-0.31 nM (two-fold dilution) for 120 s, and then the protein dissociated in the buffer for 300 s. The sensor was refreshed with 10 mM glycine solution (pH=1.5). The detection temperature was 37° C., the detection frequency was 0.3 Hz, and the sample plate shaking rate was 500 rpm. The data were analyzed by 1:1 model fitting to obtain affinity constants.

Test [3] deals with T2, human p40-His. Kind of test: indirect ELISA, p40-His coat 0.25 µg/mL. As for the experimental part:
A microplate was coated with human p40-His (Akeso Biopharma, Inc.; gene of p40: GeneBank NM002187). After incubation at 4° C. for no less than 12 h, the plate was washed with PBST, patted dry and blocked with a solution of 1% BSA in PBS. After blocking was completed, the plate was washed with PBST and patted dry. The antibody diluted with PBST solution in gradient was added into the wells of the plate, and the antibody dilution gradient is detailed in Table 1. The plate containing the test antibody was incubated at 37° C. for 30 min and then washed with PBST and patted dry. […] TMB (Neogen, 308177) was added for color developing for 5 min in the absence of light, and then stop solution was added to terminate the chromogenic reaction. Then the plate was put into a plate reader immediately, and the OD value of each well in the plate was read at 450 nm. The data were analyzed by SoftMax Pro 6.2.1.
The binding EC₅₀ of antibody was calculated by curve fitting using antibody concentration as the abscissa and absorbance value as the ordinate, and the results are shown in Table 4 below.
In general terms: An ELISA detects its analyte on a solid surface through an enzyme-linked reagent.

In the next test the target is T3, Human IL12 (His Tag) (human, UniProt P29459 23-219; P29460 23-328).
T3 construct: Bought His-tagged heterodimer
T3 sequence (looked up) 1: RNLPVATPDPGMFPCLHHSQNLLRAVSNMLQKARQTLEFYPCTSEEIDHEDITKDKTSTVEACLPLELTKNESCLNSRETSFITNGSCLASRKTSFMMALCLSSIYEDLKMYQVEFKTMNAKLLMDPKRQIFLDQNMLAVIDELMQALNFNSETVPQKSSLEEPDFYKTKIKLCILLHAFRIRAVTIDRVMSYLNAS
T3 sequence (looked up) 2: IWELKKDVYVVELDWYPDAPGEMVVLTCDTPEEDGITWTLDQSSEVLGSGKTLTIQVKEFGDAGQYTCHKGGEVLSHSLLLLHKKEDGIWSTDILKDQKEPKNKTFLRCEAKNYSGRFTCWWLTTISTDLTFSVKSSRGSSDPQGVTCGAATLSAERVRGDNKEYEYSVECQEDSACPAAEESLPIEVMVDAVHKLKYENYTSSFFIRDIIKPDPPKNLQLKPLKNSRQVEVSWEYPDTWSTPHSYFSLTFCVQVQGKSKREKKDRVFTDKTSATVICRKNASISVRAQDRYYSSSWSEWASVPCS
Put plainly: FACS competition, IL12-His (40 nM mixed 1:1) on 293T-IL-12Rβ1&IL-23R cells. As to the method:
200 μL of 1% PBSA was added into each sample, and the mixture was centrifuged at 1200 rpm for 5 min to discard the supernatant. According to experiment design, correspondingly diluted antibody (highest final concentration of 60 μg/mL, 3-fold dilution, 8 concentrations in total) and IL12-His (Sino Biological, Cat. No.: CT-050-H08H-20) (40 nM) were mixed at a ratio of 1:1, and a blank control was set. The mixture of antibody and IL12 was incubated on ice for 30 min and then added to the cell precipitate at 100 μL/sample. The resulting mixture was well mixed and incubated on ice for 60 min 200 μL of 1% PBSA was added, and the mixture was centrifuged at 1200 rpm for 5 min to discard the supernatant, and then washed twice. THETM His tag antibody (FITC) (Genscript, Cat. No.: A01620) was diluted at a ratio of 1:500 and added to each tube at 100 μL. The mixture was well mixed and incubated on ice for 40 min in the absence of light. 200 μL of 1% PBSA was added, and the mixture was centrifuged at 1200 rpm for 5 min to discard the supernatant, and then washed twice. 1% PBSA was added at 200 μL/tube, and the cells were resuspended and transferred to a flow cytometry tube for testing.

As usually defined, the EC50 is the concentration at which the effect is half-maximal. As a reminder, the Kd is a measure of binding affinity in units of concentration. Low readings indicate higher affinity, high ones lower affinity. As a reminder, the koff is the first-order rate constant of dissociation. High values mean fast dissociation, low ones slow dissociation. What is called kon is a measure of how fast the partners come together. Low values mean slower complex formation, high ones faster complex formation.

B1: H8L15 (antibody, human IgG1, kappa, V domains shown)
VH: EVQLVQSGAEVKKPGESLKISCQSSGYTFTSYWIGWVRQMPGQGLEWIGIMSPVDSDIRYNPMFRGQVTMSVDKSSSTAYLQWSSLKASDTAMYYCARRRPGQGYFDFWGQGTMVTVSS
VL: EIVLTQSPATLSASPGERATISCRASQSVGTWVAWYQQKPGQAPRSLIYAASNLQSGIPARFSGSGSGTDFTLTISSLEPEDFAVYYCQQYNIYPYTFGQGTRLEIKR
notes: human IgG1 (P01857) / kappa (P01834) constant regions; also called anti-human IL-12/IL-23 p40 antibody H8L15; H8L15H1L1
In the case of B1, in test [1], the EC50 stood at 0.894 µg/mL. Further, in the test with human p40-His [2], binding was characterised by a dissociation constant (Kd) of 0.0609 nM, the “S E (kon)” value is 213000 M⁻¹ s⁻¹, the “S E(kdis)” value worked out at 0.000137 s⁻¹ and the koff is 0.00018 s⁻¹. In the test with human p40-His [2], this molecule came in with a kon of 2.95e+06 M⁻¹ s⁻¹. Moreover, the EC50 in the test with human p40-His [3] is 0.059 nM. Besides, the EC50 in the test with Human IL12 (His Tag) was 1.46 µg/mL.

For the origin of these results see patent US20220298235A1 (AKESO BIOPHARMA, published 2022).
